In patent publication US20140120095A1 (Boehringer Ingelheim, published 2014):
Where a chain is given by its changes, count along the chain named.

B1: DLLBII101G08 (VHH)
VHH: EVQLVESGGGLVQAGGSLRLSCAASGRTFSSYAMAWFRQAPGKEREFVAAIRWSGGTAYYADSVQGRFTISRDNAKNTVYLQMNSLKPEDTAVYYCANRAADTRLGPYEYDYWGQGTQVTVSS
notes: also called 101G8; DLLBII101G8
B2: DLLBII129B05 (VHH, not shown: small tags and cut ends)
VHH: B1 VHH with F37Y, F47Y, A101P, G106A, Y112H
B3: DLLBII129E11 (VHH, not shown: small tags and cut ends)
VHH: B1 VHH with F37Y, F47Y, A101P, G106R, E109L
B4: DLLBII115A05 (VHH)
VHH: EVQLVESGGGLVQPGGSLRLSCAASGFTFGSYDMSWVRRSPGKGPEWVSSINSGGGSTYYADFVKGRFTISRDNAKNTLYLQMNSLKPEDTAVYYCAADRYIRARQGDYWGAYEYDYWGQGTQVTVSS
notes: also called 115A5; DLLBII115A5
B5: DLLBII136C07 (VHH, not shown: small tags and cut ends)
VHH: B4 VHH with F63Y, R103W, D108E

Columns and labels:
[1] = target: T1, human DLL4 overexpressed on cells (human, UniProt Q9NR61 27-685); test: FMAT, labelled hNotch1-Fc on CHO-hDLL4, periplasmic extract
T1 construct: full length human DLL4 on CHO or HEK293 cells; also called CHO-hDLL4; CHO-hDII4
Text: All calculations are based on the FL1_total signal which comprises the average of the fluorescence per well times the number of counts per well.

[2] = target: T2, human DLL4 expressed on cells (CHO-hDLL4; HEK293-hDLL4) (human, UniProt Q9NR61 27-685); test: competition FMAT, labelled hNotch1-Fc on CHO-hDLL4 cells
T2 construct: full length human DLL4 overexpressed on CHO cells (FMAT, FACS) or HEK293 cells (reporter assay)

[3] = target: T3, recombinant human DLL4 (C-terminally His-tagged extracellular domain, R&D Systems) (human, UniProt Q9NR61 25-522, biotinylated in the competition ELISA); test: cell-based or functional assay
[4] = target: T4, mouse DLL4 expressed on CHO cells (mouse, UniProt Q9JI71 27-686); test: competition FMAT, labelled hNotch1-Fc on CHO-mDLL4 cells
T4 construct: whole, on cells; also called mDLL4; CHO-mDLL4

[5] = target: T3, recombinant human DLL4 (C-terminally …); test: SPR (Biacore), recombinant human DLL4
[6] = target: T2, human DLL4 expressed on cells …; test: FACS titration on human DLL4 expressing cells, detection anti-c-myc Alexa647 (Example 5.8, Example 7), MCF

T4 sequence (Q9JI71 27-686): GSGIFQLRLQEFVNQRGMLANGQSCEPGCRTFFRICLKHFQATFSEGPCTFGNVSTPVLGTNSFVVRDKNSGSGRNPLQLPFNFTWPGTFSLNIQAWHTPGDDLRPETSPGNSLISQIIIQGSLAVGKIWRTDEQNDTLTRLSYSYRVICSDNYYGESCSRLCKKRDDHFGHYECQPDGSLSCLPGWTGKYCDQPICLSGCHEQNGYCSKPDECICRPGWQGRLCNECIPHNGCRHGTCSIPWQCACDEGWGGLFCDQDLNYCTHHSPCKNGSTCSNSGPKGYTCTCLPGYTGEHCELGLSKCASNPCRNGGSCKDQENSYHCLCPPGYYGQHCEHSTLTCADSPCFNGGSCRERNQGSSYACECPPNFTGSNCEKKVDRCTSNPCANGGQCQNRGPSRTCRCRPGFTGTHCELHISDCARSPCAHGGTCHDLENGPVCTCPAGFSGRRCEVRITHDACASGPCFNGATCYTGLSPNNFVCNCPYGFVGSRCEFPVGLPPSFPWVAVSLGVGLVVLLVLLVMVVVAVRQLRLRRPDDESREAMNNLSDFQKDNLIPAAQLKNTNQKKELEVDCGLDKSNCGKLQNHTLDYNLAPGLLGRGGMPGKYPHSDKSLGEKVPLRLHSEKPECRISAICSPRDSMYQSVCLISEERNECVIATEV

Binder | % inh [1] [%] | IC50 [2] [nM] | IC50, DLL4-mediated HUVEC proliferation assay [3] [nM] | Inhibition (%), DLL4-mediated HUVEC proliferation assay [3] [%] | IC50 [4] [nM] | Kd [5] [nM] | koff [5] [s⁻¹] | kon [5] [M⁻¹ s⁻¹] | EC50 (read off the curve) [6] [nM]
B1 | 91 | – | – | – | – | – | – | – | –
B2 | – | 8.2 | 3.7 | 100 | 15.9 | 0.2 | 7.9e-05 | 340000 | –
B3 | – | – | – | – | – | – | – | – | ~10
B4 | 74 | – | – | – | – | – | – | – | –
B5 | – | 11.4 | 14.5 | 100 | 50.8 | 1 | 0.00052 | 550000 | –
